Earlier results on one substance are cited in PMC8467547.

One data set deals with IFNAR2 (Homo sapiens) (UniProt P48551).
In a further data set the target is IFNAR1 (Homo sapiens) (UniProt P17181).
UniProt P17181, sequence (P17181 28-436): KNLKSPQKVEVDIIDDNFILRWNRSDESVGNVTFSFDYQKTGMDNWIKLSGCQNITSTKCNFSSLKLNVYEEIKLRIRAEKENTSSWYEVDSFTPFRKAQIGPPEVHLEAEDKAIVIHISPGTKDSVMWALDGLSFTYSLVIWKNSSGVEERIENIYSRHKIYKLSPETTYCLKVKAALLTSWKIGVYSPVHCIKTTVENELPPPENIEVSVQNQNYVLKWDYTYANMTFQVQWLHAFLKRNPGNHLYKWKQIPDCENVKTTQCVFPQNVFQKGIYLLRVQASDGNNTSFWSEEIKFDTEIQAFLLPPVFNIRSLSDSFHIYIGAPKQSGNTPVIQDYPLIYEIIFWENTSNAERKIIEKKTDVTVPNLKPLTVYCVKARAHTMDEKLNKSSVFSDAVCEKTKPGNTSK

UniProt P48551, sequence (P48551 27-243): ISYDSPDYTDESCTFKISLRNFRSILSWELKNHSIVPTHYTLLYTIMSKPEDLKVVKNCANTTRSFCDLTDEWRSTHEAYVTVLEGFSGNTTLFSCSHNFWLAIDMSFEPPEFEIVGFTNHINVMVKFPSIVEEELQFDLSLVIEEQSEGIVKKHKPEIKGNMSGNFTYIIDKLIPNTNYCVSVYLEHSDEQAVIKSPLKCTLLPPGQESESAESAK

For IFN-beta (from UniProt P01574), the figures for the Kd with IFNAR2 (Homo sapiens) and with IFNAR1 (Homo sapiens) were 0.2 nM and 100 nM, respectively.

As usually defined, the Kd is a measure of binding affinity in units of concentration.
